In US20030054411A1, “GPR motifs and uses thereof” (priority 2001, published 2003):

Tests used:
[1] = system: pheromone response pathway; assay: Yeast expression cloning system, growth assay; assay type: cell-based, Saccharomyces cerevisiae; conditions: for activity in the presence of Giα2 G204A mutant or RGS4: G204A Giα2 strain or RGS4 overexpression; for growth in yeast expression cloning system: Giα2 yeast strain, selective medium; for function in null Ste5 genetic background: yeast strain lacking Ste5
Source text: (A) Three cDNA clones (#34, #37 and #53) were isolated from a screen of 1.1×10^6 yeast transformants based upon their ability to promote growth in a galactose-dependent manner in the yeast expression cloning system (5). B) Analysis of the cDNA clones in spot growth assays using yeast strains lacking STE20, STE5 or STE4. Control (Non-induced/no selection)—glucose media lacking uracil and tryptophan (UT). Non-induced/selection—glucose media lacking uracil/tryptophan/histidine (UTH) and containing the histidine analog aminotriazole (AT) at 1 mM. Induced/selection—galactose media lacking UTH and containing 1 mM AT. WT—wild type strain CY1316/1183. cDNA #34 was active in the absence of a functional STE5 and thus was not evaluated (black circles in key) in yeast strains lacking STE4 or STE20. For spot growth assays, ˜2,000 cells suspended in water were spotted on appropriate medium and the plates were incubated at 30° for 2 days prior to photography. Experiments in (A, B) were repeated three times with similar results.
(A) Bioactivity of cDNA #37 and 53 in yeast strains expressing different Gα subunits. The Gpa1, Giα2Gpa1(1-41), Giα3Gpa1(1-41) and Gα16Gpa1(1-41) yeast strains expressed similar amounts of G-protein as determined by immunoblotting with Gpa1-specific antisera. Each series of experiments include data obtained in the absence of Gα to indicate the signal obtained when the action of Gβγ is not limited by reformation of heterotrimer. Data are presented as the mean±S.E.M of three experiments with duplicate determinations. (B) Interaction of AGS2 and AGS3 with G-proteins. AGS2 and the bioactive AGS3 peptide (74 amino acids) beginning at the first in frame methionine were generated as GST-fusion proteins in bacteria and purified using a glutathione affinity matrix. AGS2 and AGS3 GST fusion proteins were incubated with G-protein subunits (Gα=60-80 nM, Gβγ=40 nM, fusion protein=˜300 nM, total volume=250 ul) for 12 hrs at 4° C. GDP=10 uM. GTPγS=10 uM plus 5 mM MgCl2. Proteins were then adsorbed to glutathione matrix and retained G-protein subunits identified by immunoblotting following gel electrophoresis. Giα2 was generated in Sf9 cells as an amino terminal his6-tagged protein and was detected on membrane transfers using anti-Xpress antisera (Invitrogen). Bovine brain Gβγ was detected on membrane transfers with Gβ antisera. Input refers to 20 ul of the incubation mixture. The results presented are representative of four separate experiments. […] C) Effect of G204A Giα2 substitution and RGS4 on the functionality of AGS proteins. The G204A Giα2 yeast strain and the system used for over expression of RGS4 are described in detail in reference 5. Protein expression was confirmed by immunoblotting. AGS 1 was discovered in a similar screen using a human liver cDNA library (5, 7). WT—wild type strain CY1316/1183 containing Giα2 as described for the original yeast screen. RGS4 was overexpressed in the CY1316/1183 yeast strain. Similar results were obtained in three experiments.
Generation and screening of cDNA libraries. The NG108-15 cell line was propagated as previously described (4). mRNA was prepared from twenty 100 mm confluent plates of cells and used to generate a cDNA library in the yeast expression vector pYES2. The library was constructed by standard procedures using reagents from Stratagene. Analysis of individual transformants indicated cDNA inserts ranging from 400 to 3000 nt with ˜70-80% of the transformants containing cDNA inserts. The primary transformants were then amplified by solid phase agarose growth for 48 hr and plasmid DNA isolated by column fractionation (Qiagen). The NG108-15 cDNA library was then screened for activators of the pheromone response pathway as described (5). We used a his3 far1 yeast strain containing a genomic integration of the FUS1p-HIS3 reporter construct and lacking both the native pheromone response receptor Ste3 and Gpa1 Gα subunit. […]

[2] = molecular target: T1, Giα2 (Homo sapiens, UniProt P04899); assay: GTPγS binding assay, Giα2; assay type: biochemical; conditions: AGS proteins
T1 construct: made in house; host or cells: Sf9 insect cells
T1 sequence (P04899 whole entry): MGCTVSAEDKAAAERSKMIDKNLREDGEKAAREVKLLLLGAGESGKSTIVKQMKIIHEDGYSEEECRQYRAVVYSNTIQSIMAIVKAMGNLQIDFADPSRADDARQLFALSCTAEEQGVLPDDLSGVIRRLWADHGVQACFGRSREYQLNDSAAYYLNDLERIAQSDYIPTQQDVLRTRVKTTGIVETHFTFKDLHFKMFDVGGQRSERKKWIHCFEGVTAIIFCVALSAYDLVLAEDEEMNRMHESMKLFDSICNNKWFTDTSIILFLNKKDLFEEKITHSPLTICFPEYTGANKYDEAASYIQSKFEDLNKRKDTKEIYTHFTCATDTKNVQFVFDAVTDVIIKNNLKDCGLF
Experimental: (§1) A and B, the carboxyl region of AGS3 (Pro^463-Ser^650) containing all four GPR repeats was generated as a His-tagged (A) or GST fusion (B) protein for protein interaction assays as described under Examples. All interactions were done in the presence of 10 μM GDP, and the input lanes represent one-tenth of the G-protein used in each interaction assay. A, Giα1 (75 nM) was incubated with 300 nM His-tagged AGS3-GPR in the absence and presence of increasing amounts of the GPR peptide, after which bound Giα was isolated on a nickel affinity matrix, and samples were processed for immunoblotting with Giα antisera. The blot in the upper panel of A was stripped and reprobed with AGS3 antisera to provide internal controls for protein loading. B, Giα2 (75 nM) was incubated with 300 nM AGS3-GPR or GST in the presence and absence of 100 μM GPR consensus peptide, GPR peptide Q15A, or GPR peptide R23F. The immunoblots presented in A and B are representative of three experiments. C and D, GTPγ^35S binding to G-proteins (100 nM) was measured in the absence and presence of peptides as described in the Examples. Data are expressed as the percent of specific binding (˜5 pmol) observed in the absence of peptide and represent the means±S.E. derived from three experiments. The concentration of peptides in D is 10 μM.
GTPγS Binding Assays—GTPγS binding assays were generally conducted as described (39). G-proteins (100 nM) were preincubated for 20 min at 24° C. in the presence and absence of GPR peptides. Binding assays (duplicate determinations) were initiated by addition of 0.5 μM GTPγS (4.0×10^4 dpm/pmol), and incubations (total volume=50 μl) were continued for 30 min at 24° C. Both preincubations and GTPγS binding assays were conducted in binding buffer containing 2 mM MgCl2. Reactions were terminated by rapid filtration through nitrocellulose filters with 4×4-ml washes of stop buffer (50 mM Tris-HCl, 5 mM MgCl2, 1 mM EDTA, pH 7.4, at 4° C.). Radioactivity bound to the filters was determined by liquid scintillation counting. Nonspecific binding was defined by 100 μM […].

[3] = system: brain G-protein; assay: GTPγS binding assay, brain G-protein; assay type: biochemical, bovine; conditions: AGS proteins
Experimental: as §1, with “The immunoblots presented in A and B are representative of three experiments.” left out, “The concentration of peptides in D is 10 μM.” left out
GTPγS Binding Assays—GTPγS binding assays were generally conducted as described (39). […] Radioactivity bound to the filters was determined by liquid scintillation counting. […]

Molecule | activity in the presence of Giα2 G204A mutant or RGS4 [1] | growth in yeast expression cloning system [1] | function in null Ste5 genetic background [1] | activity in yeast strains lacking Ste20 or Ste4 [1] | effect on GTPγ35S binding to Giα2 [2] | effect on GTPγ35S binding to heterotrimeric brain G-protein [3]
AGS2: Activator of G-protein Signalling 2, protein identical to mouse Tctex1, isolated from NG108-15 cDNA library | still active | promoted growth in a galactose-dependent manner | did not function | inactive | did not alter | did not alter
AGS3: Activator of G-protein Signalling 3; bioactive 74 amino acid fragment isolated in yeast screen, tested as GST fusion (protein, left off: a dimerising Fc or GST) MLIKYQSSRIDDQRCPPPDVLPRGPTMPDEDFFSLIQRVQAKRMDEQRVDLAGSPDQEASGLPDPRQQCPPGAS | still active | promoted growth in a galactose-dependent manner | did not function | inactive | did not alter | did not alter
